Measurements taken from US20160251438A1 (LUDWIG INSTITUTE FOR CANCER RESEARCH, published 2016).

Experiments:
[1] = target: GARP / TGF-β1 Q269Y complex (human, UniProt Q14392 20-662; P01137 30-390); assay: flow cytometry on transfected 293T cells, 5 ug/ml; grade of Loss of binding read by footnote 2
Excerpt: (§1) Resolution of the crystal structure of MHG-8 Fab/GARP/TGF-β1 complexes and analysis with the CONTACT software allowed the identification of 22 amino-acids in GARP, 8 amino-acids in LAP and 6 amino-acids in mature TGF-β1 that are located less than 5 Å away from an amino-acid of the light or heavy chain of the MHG-8 Fab (Tables 7a, b and c, and Table 8). Directed mutagenesis was used to construct plasmids encoding HA-tagged forms of GARP or TGF-β1 that are mutated at one, two, or three of these 36 positions (all mutations constructed are indicated in Table 8). […] Antibodies were used at a saturating concentration of 5 μg/ml for labeling. Binding of each antibody to a given mutant GARP/TGF-β1 complex was compared to their binding to wild type (WT) complexes, by determining an I_{m/wt} value (i.e. intensity of binding to mutant by comparison to WT). This value was calculated as follows: I_{m/wt} of antibody X=[Geom on mutant−Geom on control]/[Geom on WT−Geom on control]
(§2) The level of residual binding of anti-GARP or anti-LAP antibodies to each mutant was then calculated by comparison to WT, taking into account the expression levels of mutant and WT forms as measured with anti-HA antibodies. Residual binding was calculated as follows: Residual binding by an anti-GARP or anti-LAP antibody=[I_{m/wt} with anti-GARP or anti-LAP antibody]/[I_{m/wt} with anti-HA antibody]

[2] = target: GARP / TGF-β1 L271R/Q272Y/S273W complex (human, UniProt Q14392 20-662; P01137 30-390); assay: as above
Excerpt: as §1, §2

[3] = target: GARP M111T/A112G/T113M / TGF-β1 complex (human, UniProt Q14392 20-662; P01137 30-390); assay: as above
Excerpt: as §1, §2

[4] = target: GARP R143A / TGF-β1 complex (human, UniProt Q14392 20-662; P01137 30-390); assay: as above
Excerpt: as §1, §2

[5] = target: GARP / TGF-β1 Q272Y complex (human, UniProt Q14392 20-662; P01137 30-390); assay: as above
Excerpt: as §1, §2

[6] = target: GARP S116N / TGF-β1 complex (human, UniProt Q14392 20-662; P01137 30-390); assay: as above
Excerpt: as §1, §2

[7] = target: GARP A117R / TGF-β1 complex (human, UniProt Q14392 20-662; P01137 30-390); assay: as above
Excerpt: as §1, §2

[8] = target: GARP L140K/E142L / TGF-β1 complex (human, UniProt Q14392 20-662; P01137 30-390); assay: as above
Excerpt: as §1, §2

[9] = target: GARP R170A / TGF-β1 complex (human, UniProt Q14392 20-662; P01137 30-390); assay: as above
Excerpt: as §1, §2

[10] = target: GARP G139N / TGF-β1 complex (human, UniProt Q14392 20-662; P01137 30-390); assay: as above
Excerpt: as §1, §2

[11] = target: T1, mGARP/hTGF-β1 complex on the cell surface (mouse; human, UniProt G3XA59 18-663); assay: FACS, 293T, HA-tagged mouse GARP + hTGFB1
T1 construct: whole, on cells; also called cells transfected with hTGFB1 and mGARP

[12] = target: T2, human TGF-β1 (latent) (human, UniProt P01137 30-390); assay: FACS, 293T + hTGFB1 only [cont.) B]
T2 construct: from transfected hTGFB1; also called hTGF-β1; hTGFB1
Excerpt: No latent TGF-β is detected on their surface with an anti-LAP antibody. Transfection of GARP or TGFB1 alone induces no or low surface LAP, respectively, whereas co-transfection of GARP and TGFB1 induces high surface LAP as a result of latent TGF-β1 binding and presentation by GARP (FIG. 14, part B, left histograms).

[13] = target: T3, chimera 141 / hTGF-β1 complex on the cell surface (Mus musculus, UniProt G3XA59); assay: FACS, 293T, HA-tagged construct + hTGFB1
T3 construct: N-terminal part

[14] = target: T4, chimera 207 / hTGF-β1 complex on the cell surface (Mus musculus, UniProt G3XA59); assay: FACS, 293T, HA-tagged construct + hTGFB1
T4 construct: N-terminal part

[15] = target: T5, chimera 265 / hTGF-β1 complex on the cell surface (Mus musculus, UniProt G3XA59); assay: FACS, 293T, HA-tagged construct + hTGFB1
T5 construct: N-terminal part

[16] = target: T6, chimera 332 / hTGF-β1 complex on the cell surface (Mus musculus, UniProt G3XA59); assay: FACS, 293T, HA-tagged construct + hTGFB1
T6 construct: N-terminal part

GARP / TGF-β1 L271R/Q272Y/S273W complex, sequence (Q14392 20-662 limits assumed, stated change not applied, chain 1 of 2): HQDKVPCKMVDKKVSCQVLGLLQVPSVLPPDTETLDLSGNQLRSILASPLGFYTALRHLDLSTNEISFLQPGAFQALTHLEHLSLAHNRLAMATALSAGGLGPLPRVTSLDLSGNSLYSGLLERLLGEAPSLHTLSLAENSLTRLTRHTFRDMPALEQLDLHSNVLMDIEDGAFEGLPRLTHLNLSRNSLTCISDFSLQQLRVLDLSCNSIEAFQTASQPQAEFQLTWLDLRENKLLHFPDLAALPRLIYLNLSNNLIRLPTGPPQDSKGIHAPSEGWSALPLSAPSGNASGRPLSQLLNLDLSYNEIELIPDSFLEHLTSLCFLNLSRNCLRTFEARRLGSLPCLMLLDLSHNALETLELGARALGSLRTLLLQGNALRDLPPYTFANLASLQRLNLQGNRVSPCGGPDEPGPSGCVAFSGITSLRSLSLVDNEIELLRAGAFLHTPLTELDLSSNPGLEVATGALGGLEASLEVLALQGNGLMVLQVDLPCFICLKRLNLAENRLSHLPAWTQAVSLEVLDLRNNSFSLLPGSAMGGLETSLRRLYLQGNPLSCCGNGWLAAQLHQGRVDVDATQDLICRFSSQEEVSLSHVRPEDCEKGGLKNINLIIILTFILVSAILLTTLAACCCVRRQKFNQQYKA
GARP / TGF-β1 L271R/Q272Y/S273W complex, sequence (P01137 30-390 L271R/Q272Y/S273W limits assumed, chain 2 of 2): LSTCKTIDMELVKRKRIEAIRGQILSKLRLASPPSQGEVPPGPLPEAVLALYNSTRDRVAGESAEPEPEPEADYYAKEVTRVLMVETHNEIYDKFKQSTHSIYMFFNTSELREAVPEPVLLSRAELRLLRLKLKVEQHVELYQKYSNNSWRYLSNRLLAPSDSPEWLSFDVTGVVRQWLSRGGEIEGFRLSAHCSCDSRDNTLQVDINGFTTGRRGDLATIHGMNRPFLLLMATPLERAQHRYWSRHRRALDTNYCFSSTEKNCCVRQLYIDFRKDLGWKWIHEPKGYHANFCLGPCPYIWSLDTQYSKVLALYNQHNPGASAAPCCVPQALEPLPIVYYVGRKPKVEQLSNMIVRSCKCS
GARP / TGF-β1 Q269Y complex, sequence (Q14392 20-662 limits assumed, chain 1 of 2): as the sequence (Q14392 20-662 limits assumed, stated change not applied, chain 1 of 2) above
GARP / TGF-β1 Q269Y complex, sequence (P01137 30-390 Q269Y limits assumed, chain 2 of 2): as the sequence (P01137 30-390 L271R/Q272Y/S273W limits assumed, chain 2 of 2) above, with Q240Y, R242L, Y243Q, W244S counted along it
GARP / TGF-β1 Q272Y complex, sequence (Q14392 20-662 limits assumed, chain 1 of 2): as the sequence (Q14392 20-662 limits assumed, stated change not applied, chain 1 of 2) above
GARP / TGF-β1 Q272Y complex, sequence (P01137 30-390 Q272Y limits assumed, chain 2 of 2): as the sequence (P01137 30-390 L271R/Q272Y/S273W limits assumed, chain 2 of 2) above, with R242L, W244S counted along it
T4 sequence (G3XA59 other isoform, or with tags, fused parts or gaps mutant limits assumed, chain 1 of 2): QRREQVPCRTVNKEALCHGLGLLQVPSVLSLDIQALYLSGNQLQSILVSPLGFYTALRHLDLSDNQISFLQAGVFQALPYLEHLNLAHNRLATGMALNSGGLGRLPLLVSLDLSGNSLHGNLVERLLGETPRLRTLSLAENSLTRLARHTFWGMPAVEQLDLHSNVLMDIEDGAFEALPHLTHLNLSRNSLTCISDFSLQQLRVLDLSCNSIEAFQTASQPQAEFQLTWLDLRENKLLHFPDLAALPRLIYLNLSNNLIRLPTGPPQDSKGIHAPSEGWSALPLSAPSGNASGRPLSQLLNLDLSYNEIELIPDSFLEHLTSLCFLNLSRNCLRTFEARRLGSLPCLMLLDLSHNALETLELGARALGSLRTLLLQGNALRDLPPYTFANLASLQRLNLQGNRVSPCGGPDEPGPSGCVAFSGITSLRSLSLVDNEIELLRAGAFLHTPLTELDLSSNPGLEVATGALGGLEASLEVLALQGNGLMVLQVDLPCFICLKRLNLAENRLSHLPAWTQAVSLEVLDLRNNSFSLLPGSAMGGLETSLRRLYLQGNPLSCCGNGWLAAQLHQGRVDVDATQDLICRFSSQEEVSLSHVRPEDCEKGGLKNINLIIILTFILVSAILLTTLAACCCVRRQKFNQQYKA
T4 sequence (TGF-β1, as listed by the source mutant limits assumed, chain 2 of 2): as the sequence (P01137 30-390 L271R/Q272Y/S273W limits assumed, chain 2 of 2) above, with R242L, Y243Q, W244S counted along it
T2 sequence (P01137 30-390 limits assumed): as the sequence (P01137 30-390 L271R/Q272Y/S273W limits assumed, chain 2 of 2) above, with R242L, Y243Q, W244S counted along it

residual binding on mutant by comparison to WT [1]: ≥ 50%
residual binding on mutant by comparison to WT [2]: ≥ 50%
residual binding on mutant by comparison to WT [3]: ≥ 50%
residual binding on mutant by comparison to WT [4]: ≥ 50%
residual binding on mutant by comparison to WT [5]: ≥ 50%
residual binding on mutant by comparison to WT [6]: ≥ 50%
residual binding on mutant by comparison to WT [7]: ≥ 50%
residual binding on mutant by comparison to WT [8]: ≥ 50%
residual binding on mutant by comparison to WT [9]: ≥ 50%
residual binding on mutant by comparison to WT [10]: ≥ 50%
binding result [11]: no binding
binding result [12]: no binding
binding result [13]: no binding
binding result [14]: no binding
binding result [15]: no binding
binding result [16]: no binding
B1: LHG-10 (antibody, human IgG1, V domains shown)
VH: EVQLVQPGAELRNSGASVKVSCKASGYRFTSYYIDWVRQAPGQGLEWMGRIDPEDGGTKYAQKFQGRVTFTADTSTSTAYVELSSLRSEDTAVYYCARNEWETVVVGDLMYEYEYWGQGTQVTVSS
VL: DIQMTQSPTSLSASLGDRVTITCQASQSISSYLAWYQQKPGQAPKLLIYGASRLQTGVPSRFSGSGSGTSFTLTISGLEAEDAGTYYCQQYDSLPVTFGQGTKVELK
notes: llama-derived V regions in a full human IgG1
